# Experimental data: paper PMC9646764
# Read-outs that look alike come from different tables or passages of the source.
# Legend:
# Assay in all cases: BLI
# [1] = target: TFPI-Fc (human IgG-Fc-tagged TFPI without the GPI anchor) (UniProt P10646); conditions: for response: parent: est. 0.0, read off a plot
# [2] = target: mTFPI-Fc (Fc-tagged mouse TFPI) (mouse) (UniProt O54819)
# [3] = target: Chicken TFPI-Fc (chicken); conditions: domain or fragment
# [4] = target: mTFPI-Fc (Fc-tagged mouse TFPI) (UniProt O54819); conditions: 2000 nM fragment, read at end of association (~145 s), parent: est. 0.03, read off a plot
# Sequence of mTFPI-Fc (Fc-tagged mouse TFPI) (O54819 29-217): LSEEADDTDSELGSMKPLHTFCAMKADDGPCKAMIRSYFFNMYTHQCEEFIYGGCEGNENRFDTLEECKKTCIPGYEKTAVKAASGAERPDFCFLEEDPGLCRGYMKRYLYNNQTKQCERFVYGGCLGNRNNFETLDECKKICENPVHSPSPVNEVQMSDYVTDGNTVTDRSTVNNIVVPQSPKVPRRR
# Sequence of mTFPI-Fc (Fc-tagged mouse TFPI) (mouse) (O54819 29-217): as above
# Sequence of TFPI-Fc (human IgG-Fc-tagged TFPI without the GPI anchor) (P10646 29-209): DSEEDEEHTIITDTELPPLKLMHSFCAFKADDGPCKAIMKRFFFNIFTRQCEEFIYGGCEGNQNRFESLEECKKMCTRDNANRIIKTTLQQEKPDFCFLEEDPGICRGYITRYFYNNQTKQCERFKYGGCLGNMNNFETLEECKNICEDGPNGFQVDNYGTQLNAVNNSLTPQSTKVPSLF
substance,measurement,setting,value
TcdB2.1_(1285-1804) L1505P; C1509Y; E1547K; N1596K; Q1599K,response,[1],0.1 nm
TcdB2.1_(1285-1804) S1495I,response,[1],0.38 nm
TcdB2.1_(1285-1804) S1495I; L1505P; C1509Y; E1547K,response,[1],0.62 nm
TcdB2.1_(1285-1804) S1495I; L1505P; C1509Y; N1596K; Q1599K,response,[1],0.66 nm
TcdB2.11_(1286-1805),Kd,[1]; domain or fragment,133 nM
same,koff,[1]; domain or fragment,0.0109 s⁻¹
same,Kd,[2]; domain or fragment,90.9 nM
same,koff,[2]; domain or fragment,0.00623 s⁻¹
same,Kd,[3],205 nM
same,koff,[3],0.0165 s⁻¹
TcdB4.2_(1286-1805) (domain or fragment),Kd,[1],50 nM
same,Kd,[2],24 nM
TcdB11.2_(1285-1804) F1506S; D1511Y,response,[4],0.74 nm
TcdB11.2_(1285-1804) F1506S; D1511Y; F1597S; V1598L,response,[4],0.67 nm
TcdB11.2_(1285-1804) F1597S; V1598L,response,[4],0.13 nm
